We go through three substances from paper PMC6343799.

pEC50, pKd: −log10 of the molar value.

One assay has as its target SHR-1210-IgG1 (human). Put plainly: SPR. Background: SPR reads the build-up and loss of mass on a sensor chip optically.
Assay [1] deals with cyno PD1 expressed on CHO-K1 stable cell line (Macaca fascicularis) (UniProt B0LAJ3). Put plainly: flow cytometry on cells.
Assay [2] concerns the target human PD1 expressed on CHO-K1 stable cell line (Homo sapiens) (UniProt Q15116). Put plainly: flow cytometry on cells. On the technique in general: In flow cytometry, cells or beads pass a laser one at a time.

For orientation: pKd means the Kd on a negative log10 scale, so that one unit is a factor of ten. A lower pKd goes with a high Kd. In the assay with SHR-1210-IgG1 (human), “His-tagged monomeric cynomolgus monkey PD1 ectodomain (domain or fragment)” showed a pKd of 7.49.

The substance “His-tagged monomeric human PD1 ectodomain (from UniProt Q15116 25-170) (domain or fragment)” showed a pKd with SHR-1210-IgG1 (human) of 8.40.

In general, pEC50 refers to −log10 of the EC50, conventionally taken in molar units. As for SHR-1210-IgG1 (antibody), the pEC50 in assay [1] was 8.18; in assay [2], 8.63.
